Experimental data published in US10344330B2, “Glatiramer acetate response biomarker mRNA potency assay” (Mylan Inc., priority 2013, dated 2019).

Columns and labels:
Type in all cases: cell-based, mouse
[1] = tested on: mIL-10 mRNA in primary LN cells; experiment: mIL-10 mRNA by real-time PCR in stimulated LN cells of immunized (SJL/J×BALB/C)F1 mice (Example I); conditions: GA 10, MBP 10, ConA 2.5 μg/mL, reference GAPDH
Protocol: Animals were immunized on Day 0.
Each mouse received a total injection volume of […] (250 μg GA). Animals were immunized on Day 0. […] Lymph nodes from immunized mice were removed and isolated.
Expression of cytokine mRNA was quantitatively analyzed 4 and 6 hours after using a Real-Time PCR system (7500, Applied Biosystems).

[2] = tested on: IL-12 (total) secreted by LN cells; experiment: IL-12 (total) secretion by GA-stimulated LN cells, MSD 9-plex ELISA (Example II); conditions: 21 hr
Protocol: Animals at 8 weeks of age were immunized by injection into four footpads using a 1 mL syringe with a 27-G, 1⁄2-inch needle. […] Ten days post-immunization, immunized animals were sacrificed via cervical dislocation. […] The LN cells were isolated by pressing the LN with the plunger end of a sterile syringe. […] Trypan blue exclusion method was used to determine the cell density of viable cells in the suspension. […] Cat. […] LN cells were plated into a 24-well tissue culture plate for drug stimulation. […] Cell debris was removed by centrifugation at ca. 200×g for 10 minutes at 4° C. Cytokines secreted by treated cells were determined on the day of collection by ELISA using mouse TH 1/TH 2 9-Plex Tissue Culture Kit (Meso Scale Discovery; Cat No. […]-2, Lot #: K0032839) which detects Th1 cytokines (IFN-γ, IL-2, IL-12, IL-1β, TNF-α, CXCL1) and Th2 cytokines (IL-4, IL-5 and IL-10). For IFN-γ, culture media also were assayed at 45 hours using mouse IFN-γ Tissue Culture Kit (Meso Scale Discovery; Cat No. […] For the positive control, 0.5 mL of LN cells (5×10^6 cells/well) were treated with 0.5 mL of ConA (5 μg/mL). For the negative control, 0.5 mL of LN cells (5×10^6 cells/well) were treated with 0.5 mL of MBP (20 μg/mL). The LN cells with mock stimulation (enriched DCCM1 medium) were used to monitor the background level of a cytokine. For the cytokine assays, calibration standards or samples were incubated in the MULTI-SPOT or the SINGLE-SPOT plate and each cytokine bound to its corresponding capture antibody. All test samples were run in duplicate. The amount of each cytokine on its distinct spot was quantified using a cytokine-specific detection antibody labeled with MSD SULFO-TAGTM reagent. Electrochemiluminescent signals from immobilized SULFO-TAGTM-labeled complexes on each spot from each well were captured by the MSD SECTOR Imager 6000, which produces a signal directly proportional to the amount of captured cytokine in a test sample. The levels of cytokines in test samples were derived by interpolation from calibration curves with calibration standards of known concentrations using reagents provided with the MSD kits. Kits were used according to the manufacturer's protocols. […] Data are expressed as a response ratio of cytokine concentration in treated cell medium to control DCCM1 medium.

TNF-α mRNA in LN cells = experiment: TNF-α mRNA by real-time PCR in LN cells of GA-immunized CD-1, BALB/cByJ, SJL/J mice (Example III); conditions: stimulation 10 μg/mL, 6 hours
Protocol: On Day 0, mice were immunized with 250 μg GA (GMA, Mylan Pharmaceuticals, Inc.) and CFA. The GA solution (20 mg/mL) was diluted with Dulbecco's Phosphate-Buffered Saline to 5 mg/mL. The dosing formulation consisted of equal volumes of the diluted GA solution (5 mg/mL) and CFA solution, mixed until well-emulsified. Animals were weighed and allocated to groups. Animals were dosed by injection into four footpads. The injection volume per animal was 0.1 mL (about 10 μL into each front footpad, and 40 μL into each hind footpad).
Immunized animals were euthanized by cervical dislocation on Day 10 post-immunization. Lymph node cells were isolated from animals and treated with Myelin Basic Protein (MBP, a negative control), Concanavalin A (ConA, a positive control) or GA as shown in Table 16. Lymph nodes in the axillary and popliteal regions were removed aseptically in a purifier clean bench. […] The LN were then washed 3 times with −5 mL of RPMI medium, and isolated by pressing the LN with a syringe plunger. […] The cell suspension was centrifuged at about 200×g for 10 minutes at about 4° C. and re-suspended in ice cold enriched DCCM-1 medium. Cells were seeded in 96-well tissue culture plates.
LN cells isolated from GA-immunized animals were stimulated with GA (GMA, Mylan Pharmaceuticals, Inc.) at concentrations as indicated in Tables 16 and 17. A positive control was prepared by treating LN cells with 2.5 μg/mL concavalin A (ConA, a non-specific T cell stimulant). Myelin basic protein (MBP, 10 μg/mL) and enriched DCCM-1 medium served as negative controls. The cells from all groups each were stimulated with the same GA lot. Each reaction was set up in triplicate.
After incubation at about 37° C. in a humidified CO2 incubator for 6 hours, the cells were lysed for total RNA isolation. Total RNA was isolated from treated LN cells using SV 96 Total RNA Isolation System according to the manufacturer's protocol (Promega, Cat. #Z3500). Cells were washed once with Phosphate Buffered Saline (PBS) and lysed in RNA lysis buffer. The lysate was transferred to wells of the SV 96 binding plate. Samples were washed with RNA wash solution and treated with DNase. Total RNA was eluted with nuclease-free water from the binding plate.
After the reverse transcriptase reaction was completed, cDNA samples were used directly for real-time PCR to measure the response biomarker mRNA levels produced by the stimulated cells. […] All probes for target genes contained FAM dye, and probes for the internal control contained VIC®/MGB dye. Samples will be prepared and run in 96-well plates using a Real-Time PCR system (7500, Life Technologies). This system allows direct detection of PCR-product formation by measuring the increase in fluorescent emission continuously during the PCR reaction. A relative quantitation method was used to analyze changes in mouse IL-2, IL-4, IL-5, IL-10, IL-13, IFN-γ and TNF-α expression in GA-treated samples relative to the untreated control (enriched DCCM-1 treated) samples. The Real-Time PCR program was:
The levels of mouse cytokine amplicons (IL-2, IL-4, IL-5, IL-10, IL-13, mIFN-γ and TNF-α) were normalized to internal probe levels (GAPDH) from the same samples. The following equations were used to calculate the relative increase in response to GA stimulation compared to the control sample: ΔCT=CT_target−CT_reference ΔΔCT=−ΔCT_Treated−CT_VC

[3] = tested on: IL-2 secreted by LN cells; experiment: IL-2 secretion by GA-stimulated LN cells, MSD 9-plex ELISA (Example II); conditions: 21 hr
[4] = BALB/cByJ, immunized GA Lower Limb
[5] = C57BL10J, immunized GA Intraplantar
[6] = C57BL10J, immunized GA Lower Limb

B1: MBP: myelin basic protein, a negative control (protein, UniProt P02686 1-304, looked up)
Myelin basic protein: MGNHAGKRELNAEKASTNSETNRGESEKKRNLGELSRTTSEDNEVFGEADANQNNGTSSQDTAVTDSKRTADPKNAWQDAHPADPGSRPHLIRLFSRDAPGREDNTFKDRPSESDELQTIQEDSAATSESLDVMASQKRPSQRHGSKYLATASTMDHARHGFLPRHRDTGILDSIGRFFGGDRGAPKRGSGKDSHHPARTAHYGSLPQKSHGRTQDENPVVHFFKNIVTPRTPPPSQGKGRGLSLSRFSWGAEGQRPGFGYGGRASDYKSAHKGFKGVDAQGTLSKIFKLGGRDSRSGSPMARR
Q: For B1, which “mIL-10 mRNA” value ([1]; Group 1B (GA + CFA), 4 hours post-stimulation) is on record?
A: 1.0 fold change vs control

Q: What about the “mIL-10 mRNA” value ([1]; Group 1B (GA + CFA), 6 hours post-stimulation) of the same molecule?
A: 0.6 fold change vs control

Q: And the “mIL-10 mRNA” value ([1]; Group 2B (Mannitol + CFA), 4 hours post-stimulation)?
A: 1.0 fold change vs control

Q: And the “mIL-10 mRNA” value ([1]; Group 2B (Mannitol + CFA), 6 hours post-stimulation)?
A: 0.5 fold change vs control

Q: What about the “IL-12 (total) secretion response ratio (treated cell medium to control DCCM1 medium)” value (shortened to “IL-12 (total) secretion response ratio”) ([2]; BALB/cByJ, immunized GA Intraplantar) of the same molecule?
A: 1.09

Q: What about the “IL-12 (total) secretion response ratio” value [2, 4] of the same molecule?
A: 1.04

Q: What about the “IL-12 (total) secretion response ratio” value ([2]; BALB/cByJ, immunized Mannitol Intraplantar) of the same molecule?
A: 1.05

Q: And the “IL-12 (total) secretion response ratio” value [2, 5]?
A: 1.18

Q: What about the “IL-12 (total) secretion response ratio” value [2, 6] of the same molecule?
A: 1.19

Q: And the “IL-12 (total) secretion response ratio” value ([2]; C57BL10J, immunized Mannitol Intraplantar)?
A: 1.13

Q: And the “IL-12 (total) secretion response ratio” value ([2]; CD-1, immunized GA Intraplantar)?
A: 1.22

Q: And the “IL-12 (total) secretion response ratio” value ([2]; CD-1, immunized GA Lower Limb)?
A: 1.18

Q: What about the “IL-12 (total) secretion response ratio” value ([2]; CD-1, immunized Mannitol Intraplantar) of the same molecule?
A: 0.99

Q: What about the “TNF-α mRNA Expression” value (TNF-α mRNA in LN cells; Group 1C: CD-1, GA-immunized) of the same molecule?
A: 0.8 fold change vs control

Q: What about the “TNF-α mRNA Expression” value (TNF-α mRNA in LN cells; Group 2C: BALB/cByJ, GA-immunized) of the same molecule?
A: 0.8 fold change vs control

Q: What about the “TNF-α mRNA Expression” value (TNF-α mRNA in LN cells; Group 3C: SJL/J, GA-immunized) of the same molecule?
A: 0.3 fold change vs control

Q: And the “IL-2 secretion response ratio (treated cell medium to control DCCM1 medium)” value (from here on “IL-2 secretion response ratio”) [3, 4]?
A: 1.13

Q: What about the “IL-2 secretion response ratio” value [3, 5] of the same molecule?
A: 1.18

Q: And the “IL-2 secretion response ratio” value [3, 6]?
A: 1.30

Q: And the “IL-2 secretion response ratio” value ([3]; CD-1, immunized GA Lower Limb)?
A: 1.29
